Reference: patent US20260001937A1, “NOVEL RECOMBINANT FIBRINOGEN VARIANTS FOR FIBRIN SEALANTS FOR SURGICAL WOUND CARE” (Julius-Maximilians-Universität Würzburg, priority 2022, published 2026)

Assays:
[1] = target: T1, fibrin gel (Sigma Aldrich fibrinogen, 20 mg/mL, gelled with thrombin, factor XIIIa and CaCl2), P02671
T1 chain 1: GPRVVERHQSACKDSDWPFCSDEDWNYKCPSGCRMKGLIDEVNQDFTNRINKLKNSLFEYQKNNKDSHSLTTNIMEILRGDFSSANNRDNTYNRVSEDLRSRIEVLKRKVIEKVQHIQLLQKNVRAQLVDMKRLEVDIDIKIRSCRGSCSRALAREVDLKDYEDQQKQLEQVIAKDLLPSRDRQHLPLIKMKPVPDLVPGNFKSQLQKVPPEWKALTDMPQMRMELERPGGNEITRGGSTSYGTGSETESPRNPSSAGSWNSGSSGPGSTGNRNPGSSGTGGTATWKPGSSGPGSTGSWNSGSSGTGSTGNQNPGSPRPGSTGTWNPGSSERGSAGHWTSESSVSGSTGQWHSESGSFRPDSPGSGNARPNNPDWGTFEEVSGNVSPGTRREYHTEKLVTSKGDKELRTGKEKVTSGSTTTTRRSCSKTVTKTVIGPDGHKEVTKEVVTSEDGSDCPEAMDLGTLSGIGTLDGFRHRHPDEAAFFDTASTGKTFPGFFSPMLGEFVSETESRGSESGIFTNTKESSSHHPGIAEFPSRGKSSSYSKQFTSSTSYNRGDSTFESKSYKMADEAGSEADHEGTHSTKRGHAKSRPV
T1 chain 2: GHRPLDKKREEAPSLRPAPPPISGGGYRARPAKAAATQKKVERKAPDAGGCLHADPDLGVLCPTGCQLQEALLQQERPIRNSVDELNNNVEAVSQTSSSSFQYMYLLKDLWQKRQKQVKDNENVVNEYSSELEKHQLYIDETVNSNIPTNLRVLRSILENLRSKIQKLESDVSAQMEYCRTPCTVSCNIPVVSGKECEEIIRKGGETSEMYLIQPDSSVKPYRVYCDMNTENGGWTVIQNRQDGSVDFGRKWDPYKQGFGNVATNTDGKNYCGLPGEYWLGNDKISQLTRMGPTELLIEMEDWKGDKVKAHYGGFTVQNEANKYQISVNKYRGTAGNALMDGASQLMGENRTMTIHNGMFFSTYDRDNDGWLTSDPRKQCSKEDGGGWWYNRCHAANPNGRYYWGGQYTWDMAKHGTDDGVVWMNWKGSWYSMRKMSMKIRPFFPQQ
T1 chain 3: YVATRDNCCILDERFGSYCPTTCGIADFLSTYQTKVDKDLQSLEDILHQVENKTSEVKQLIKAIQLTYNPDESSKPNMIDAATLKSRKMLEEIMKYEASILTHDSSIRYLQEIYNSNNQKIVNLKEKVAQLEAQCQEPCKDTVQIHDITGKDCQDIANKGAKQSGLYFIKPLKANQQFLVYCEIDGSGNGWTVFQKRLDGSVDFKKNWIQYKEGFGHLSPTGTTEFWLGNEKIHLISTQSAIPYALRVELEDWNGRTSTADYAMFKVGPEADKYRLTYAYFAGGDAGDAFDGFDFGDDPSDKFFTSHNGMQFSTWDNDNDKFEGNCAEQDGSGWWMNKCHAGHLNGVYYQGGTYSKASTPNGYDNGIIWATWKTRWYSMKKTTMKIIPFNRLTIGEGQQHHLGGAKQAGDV

[2] = target: T2, synthetic gamma-chain peptide QLI(K)AIQ with K changed to serine
T2 chain: QLISAIQ

B1: human plasmin (Merck) (protein)
chain: KVYLSECKTGNGKNYRGTMSKTKNGITCQKWSSTSPHRPRFSPATHPSEGLEENYCRNPDNDPQGPWCYTTDPEKRYDYCDILECEEECMHCSGENYDGKISKTMSGLECQAWDSQSPHAHGYIPSKFPNKNLKKNYCRNPDRELRPWCFTTDPNKRWELCDIPRCTTPPPSSGPTYQCLKGTGENYRGNVAVTVSGHTCQHWSAQTPHTHNRTPENFPCKNLDENYCRNPDGKRAPWCHTTNSQVRWEYCKIPSCDSSPVSTEQLAPTAPPELTPVVQDCYHGDGQSYRGTSSTTTTGKKCQSWSSMTPHRHQKTPENYPNAGLTMNYCRNPDADKGPWCFTTDPSVRWEYCNLKKCSGTEASVVAPPPVVLLPDVETPSEEDCMFGNGKGYRGKRATTVTGTPCQDWAAQEPHRHSIFTPETNPRAGLEKNYCRNPDGDVGGPWCYTTNPRKLYDYCDVPQCAAPSFDCGKPQVEPKKCPGRVVGGCVAHPHSWPWQVSLRTRFGMHFCGGTLISPEWVLTAAHCLEKSPRPSSYKVILGAHQEVNLEPHVQEIEVSRLFLEPTRKDIALLKLSSPAVITDKVIPACLPSPNYVVADRTECFITGWGETQGTFGAGLLKEAQLPVIENKVCNRYEFLNGRVQSTELCAGHLAGGTDSCQGDSGGPLVCFEKDKYILQGVTSWGLGCARPNKPGVYVRVSRFVTWIEGVMRNN
Question: How did the “time course of plasmin cleavage sites in the alpha-chain of fibrin gels, high-resolution ESI-MS (0.005 mU/ml plasmin, up to 2 h)” value [1] turn out when B1 was run?
Answer: cleavage begins in the αC region of fibrinogen with the most prominent cleavage at positions 602 (K|MADE) and 620 (K|RGHA). Next, cleavage sites further down the αC region are cleaved ... (e. g. positions 527 (K|TFPG), 510 (R|HRHP), 225 (K|MKPV) and 238 (K|SQLQ)). At the same time, cleavage in the α

Question: What about the “time course of plasmin cleavage sites in the beta-chain of fibrin gels, high-resolution ESI-MS” value [1] of the same protein?
Answer: cleavage of the β-chain starts at the N-terminus highlighted by positions 52 (K|REEA) and 72 (R|ARPA) ... Subsequently, the α-helical part between fragment D and E is cleaved by plasmin (e. g. 152 (K|DLWQ) and 160 (K|QVKD))

Question: And the “time course of plasmin cleavage sites in the gamma-chain of fibrin gels, high-resolution ESI-MS” value [1]?
Answer: only one additional cleavage site was found in this time-resolved assay for γ-chain ... With only 5 cleavage sites detected during the early stages of plasmin degradation

Question: What about the “plasmin cleavage efficiency of synthetic peptide, HPLC” value [2] of the same protein?
Answer: Peptide sequences including S instead of K showed a significant reduction in cleavage efficiency compared to the original sequences
